These results are taken from USRE49583E1, “Inducible expression systems” (priority 2005, dated 2023).

Substitutions are numbered along the chain they refer to. Numbers in names are those of the source. Entries after “also recorded” stand apart in the source; their conditions may differ.

This experiment has as its system chromosomally integrated CMV-7tetO luciferase reporter in HeLa X1/6 cells. Kind of experiment: rtTA activity assay, HeLa X1/6 cells with integrated CMV-7tetO luciferase reporter (Example 1, FIG. 2-3, 5, 14, 15). Type of experiment: cell-based. Conditions: for basal / background activity in the absence of inducer: no dox or other effector; for rtTA activation by minocycline (Mc): 0-10000 ng/ml Mc. From the text:
To test whether this rtTA optimization reflects a specific adaptation to the viral LTR-2ΔtetO promoter, we assayed rtTA activity with a reporter gene construct in which luciferase expression is under the control of a minimal CMV promoter coupled to an array of seven tetO elements. […] Thus, the observed mutations in rtTA are not virus-specific adaptations, but are general improvements of the Tet-on system. We also assayed rtTA activity in HeLa X1/6 cells that contain chromosomally integrated copies of the CMV-7tetO luciferase reporter construct (FIG. 2C). In these cells, the evolved rtTAs show a similar pattern of activity as with episomal reporter gene constructs in C33A cells. Thus, these mutations improve rtTA activity independent of the type of promoter and the episomal or chromosomal status of the target gene.
The V10 variant needs only 44 ng/ml dox to reach this activity level, which reflects a 23-fold higher dox-sensitivity than the wild-type rtTA.
rtTA activity assay. Two firefly luciferase reporter constructs with different promoter configurations were used. pLTR-2ΔtetO-luc contains the LTR-2ΔtetO promoter derived from the HIV-rtTA molecular clone (Marzio et al. 2001; Marzio et al. 2002). pCMV-7tetO-luc, previously named pUHC13-3 (Gossen et al. 1992), contains seven tetO elements located upstream of a minimal CMV promoter. The plasmid pRL-CMV (PROMEGA®, Madison, Wis., USA), in which the expression of Renilla luciferase is controlled by the CMV promoter, was used as an internal control to allow correction for differences in transfection efficiency.
C33A and HeLa X1/6 cells were grown in 2-cm^2 wells to 60% confluency and transfected by the calcium phosphate precipitation method (Das et al. 1999). C33A cells were transfected with 0.4 ng pCMV-rtTA (wild-type or mutant), 20 ng pLTR-2ΔtetO-luc or pCMV-7tetO-luc, 0.5 ng pRL-CMV, and 980 ng pBluescript as carrier DNA. HeLa X1/6 cells were transfected with 8 ng pCMV-rtTA, 2.5 ng pRL-CMV, and 990 ng pBluescript. The amount of the DNA constructs was optimized for each cell type to keep rtTA-mediated transactivation within the linear range and to avoid squelching of transcription factors. Cells were cultured for 48 hours in the presence of different concentrations of dox, Tc or Mc, and lysed in Passive Lysis Buffer (PROMEGA®). Firefly and Renilla luciferase activities were determined with the dual-luciferase reporter assay (PROMEGA®). The activity of the rtTA variants was calculated as the ratio of the firefly and Renilla luciferase activities, and corrected for between-session variation.
FIG. 2. Novel rtTA variants show increased activity and dox-sensitivity in different Tet systems. The transcriptional activity of rtTA variants was measured in C33A cells transfected with a plasmid carrying the firefly luciferase reporter gene under the control of the viral LTR-2ΔtetO promoter (LTR-2ΔtetO; A) or under the control of a minimal CMV-derived promoter coupled to seven tetO elements (CMV7-tetO; B). Furthermore, rtTA activity was measured in HeLa X1/6 cells (Baron et al. 1997) that contain a chromosomally integrated copy of the CMV-7tetO reporter construct (CMV7tetO-integrated; C, D). Variants V1 to V10 were compared in all three Tet systems (panels A-C) and variants V11 to V18 in the cells with the integrated reporter (panel D). Cells were transfected with the indicated rtTA expression plasmid or pBluescript as a negative control, and a plasmid constitutively expressing Renilla luciferase to correct for differences in transfection efficiency. Cells were cultured in the presence of different dox concentrations (0-1000 ng/ml). The ratio of the firefly and Renilla luciferase activities measured 2 days after transfection reflects the rtTA activity. All values were related to the wild-type (wt) rtTA activity at 1000 ng/ml dox, which was arbitrarily set at 100%. In (C and D), average values of three transfections are shown with error bars indicating the standard deviation.
FIG. 3. […]

B1: V9I F67S C68R G138D F86Y: rtTA variant with these amino acid substitutions (protein)
chain: MSRLDKSKIINSALELLNGVGIEGLTTRKLAQKLGVEQPTLYWHVKNKRALLDALPIEMLDRHHTHSRPLEGESWQDFLRNNAKSYRCALLSHRDGAKVHLGTRPTEKQYETLENQLAFLCQQGFSLENALYALSAVDHFTLGCVLEEQEHQVAKEERETPTTDSMPPLLRQAIELFDRQGAEPAFLFGLELIICGLEKQLKCESGGPADALDDFDLDMLPADALDDFDLDMLPADALDDFDLDMLPG
Regarding B1, the “basal / background activity in the absence of inducer” value (“basal / background activity” for short) is on record as “no or low basal activity”.

B2: V9I F67S R171K F86Y: rtTA variant with these amino acid substitutions (protein)
chain: B1 chain with R68C, D138G, R171K
With B2, the “basal / background activity” value is reported as “no or low basal activity”.

B3: V9I F67S C68R G138D F86Y A209T: rtTA variant with these amino acid substitutions (protein)
chain: B1 chain with A209T
With B3, the “rtTA activation by minocycline (Mc)” value was “particularly sensitive for minocycline” and the “basal / background activity” value is on record as “no or low basal activity”. Further, the “rtTA activation by tetracycline (Tc)” value (0-10000 ng/ml Tc) is reported as “particularly sensitive for tetracycline”.

B4: V9I F67S E157K F86Y: rtTA variant with these amino acid substitutions (protein)
chain: B1 chain with R68C, D138G, E157K
In the case of B4, the “basal / background activity” value is “no or low basal activity”.

B5: V9I C68R G138D F86Y: rtTA variant with these amino acid substitutions (protein)
chain: B1 chain with S67F
As to B5, the “basal / background activity” value is reported as “no or low basal activity”.

B6: E37Q F67S F86Y: rtTA variant with these amino acid substitutions (protein)
chain: B1 chain with I9V, E37Q, R68C, D138G
Consider B6, for which the “basal / background activity” value is listed as “no or low basal activity”.

B7: V9I F67S G138D F86Y: rtTA variant with these amino acid substitutions (protein)
chain: B1 chain with R68C
As to B7, the “basal / background activity” value is “no or low basal activity”.

B8: E37Q F67S F86Y A209T: rtTA variant with these amino acid substitutions (protein)
chain: B1 chain with I9V, E37Q, R68C, D138G, A209T
In the case of B8, the “basal / background activity” value is reported as “no or low basal activity”. In addition, where the note is “listed as F67S E37Q F86Y A209T”, the “rtTA activation by minocycline (Mc)” value is on record as “particularly sensitive for minocycline; also recorded: very sensitive for minocycline” and the “basal / background activity” value is reported as “low background activity”.
